{
  "source": "patent US20240181073A1",
  "about": "“Antibody-Drug Conjugates Comprising an Anti-BCMA Antibody” (Sorrento Therapeutics, Inc., priority 2021, published 2024)",
  "key": {"[1]": {"target": "T1, Human BCMA (B Cell Maturation Antigen) (human, UniProt Q02223 1-184)", "T1 sequence": "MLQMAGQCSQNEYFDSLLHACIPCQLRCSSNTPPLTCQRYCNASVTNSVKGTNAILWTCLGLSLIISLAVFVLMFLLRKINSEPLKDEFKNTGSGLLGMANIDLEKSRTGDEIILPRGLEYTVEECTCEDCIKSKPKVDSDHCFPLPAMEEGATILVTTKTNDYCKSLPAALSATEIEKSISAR", "assay": "cell-based or functional assay"}, "[2]": {"target": "T1, Human BCMA (B Cell Maturation Antigen)", "assay": "cell-based or functional assay", "remark": "listed apart in the source"}, "[3]": {"target": "T1, Human BCMA (B Cell Maturation Antigen)", "assay": "cell-based or functional assay", "remark": "listed apart in the source"}, "K562 (BCMA −) cells": {"system": "K562 (BCMA −) cells", "assay": "In vitro cell viability assay (Cell Titer-Glo 2.0), Example B1", "format": "cell-based, human", "settings": "Table 4; 5-day assays; AB1 clone; read-out: EC50 Values, Cell Line K562", "experimental": "(§1) The in vitro efficacies of ADCs anti-BCMA-Compound 1, anti-BCMA-Compound 2, anti-BCMA-Compound 3, anti-BCMA-Compound 4, anti-BCMA-Compound 5, anti-BCMA-Compound 6, anti-BCMA-Compound 7, and anti-BCMA-Compound 8, were evaluated using the following human cancer cell lines: K562, MM.1R and NCI-H929, purchased from the American Type Culture Collection (ATCC; Manassas, VA). The cells were cultured in RPMI-1640 medium (Gibco ThermoFisher; Waltham, MA) supplemented with 10% heat-inactivated fetal bovine serum (FBS: Corning; Corning, NY, USA) and 1× penicillin-streptomycin (Corning) and maintained at 37° C. in a 5% CO2 humidified environment.\n(§2) The in vitro assays were performed as follows: Tumor cells were harvested by centrifugation at 300 g for 5 minutes and plated into 96-well clear bottom white-walled plates (5,000 to 10,000 cells/well in 50 μL complete medium) and maintained at 37° C. Cells were then treated in duplicate with 50 μL of test articles prepared at 2× final concentration that were serially diluted in complete medium and incubated at 37° C. for up to 120 hrs. After treatment, inhibition of cancer cell growth was determined using the Cell Titer-Glo® 2.0 Cell Viability Assay (Promega; Madison, WI, USA) as described by the manufacturers' protocol. Luminescence was measured using a Perkin-Elmer Envision 2104 Microplate Reader (Waltham, MA).\n(§3) Data were normalized to non-treated controls using Microsoft Excel (Redmond, WA, USA) and analyzed using GraphPad Prism software (version 8; La Jolla, CA, USA). Half-maximal effective concentrations (EC50) were derived from dose response curves were generated using non-linear regression analysis fit to a 4-parameter logistic equation."}, "NCI-H929 (BCMA+) cells": {"system": "NCI-H929 (BCMA+) cells", "assay": "In vitro cell viability assay (Cell Titer-Glo 2.0), Example B1", "format": "cell-based, human", "settings": "4-day assays, FIG. 2A", "experimental": "as §1, §2, §3"}, "NCI-H929 tumor xenograft": {"system": "NCI-H929 tumor xenograft", "assay": "In vivo efficacy, NCI-H929 tumor xenograft in SCID beige mice", "design": "species or system CB17 SCID beige mice", "settings": "Experiment IV, FIG. 6", "experimental": "Female CB17 SCID beige mice, 6 weeks of age, were purchased from Charles River Laboratories.\nHuman multiple myeloma tumor cell lines NCI-H929 and OPM2 were cultured and expanded in RPMI 1640 medium supplemented with 10% FBS, 100 units/ml of penicillin and 100 μg/ml of streptomycin at 37° C. in a 5% CO2 humidified environment for a period of 2-3 weeks before harvesting for implantation. Cell viability determined by Trypan blue dye exclusion assay was >90% before implantation. 5 million of OPM2 or NCI-H929 cells in 100 μl of PBS—Matrigel 1:1 (v/v) mixture were inoculated to the right upper flank of each mouse by s.c. injection.\nTumor volume measurement was started at day 14 after tumor cell inoculation and performed twice weekly. The longest longitudinal diameter as length and the widest transverse diameter as width were measured by using a digital caliper. Tumor volume (TV) were then calculated by the formula: TV=[length×(width)^2]/2 and were analyzed in Excel.\nThe treatment was started when average tumor size reaches ˜400, 200 and 150 mm^3 for NCI-H929 tumor xenografts in Experiment I, III and IV, respectively, or ˜240 mm^3 for OPM2 tumor xenograft in Experiment I.\nMice were euthanized when tumor size reached 2000 mm^3.\nAfter tumor-bearing mice were randomized, anti-BCMA antibody (BCMA-AB1 or BCMA-AB2), anti-BCMA antibody conjugate with Compound 3 (BCMA-AB1-3 or BCMA-AB2-3) or iso-type antibody conjugate with Compound 3 (iso-3) diluted in PBS were administered to mice through i.p. injections. Treatment regimens included 8 mg/kg once, 4 mg/kg Q1W×2 and 2 mg/kg biw×4 of anti-BCMA-AB1 or anti-BCMA-AB1-Compound 3 in Experiment I (FIG. 3); 2 mg/kg biw×4 and 0.67 mg/kg biw×4 of anti-BCMA-AB1 or anti-BCMA-AB1-Compound 3 in Experiment II (FIG. 4); 1, 2, 4, and 8 mg/kg once of anti-BCMA-AB1-Compound 3 or iso-3 in Experiment III (FIG. 5); and 4 mg/kg biw×4 of anti-BCMA-AB2 or 2 and 4 mg/kg biw×4 of anti-BCMA-AB2-Compound 3 in Experiment IV (FIG. 6).\nRaw data of tumor measurements were analyzed in Excel. Tumor growth curves were plotted using GraphPad Prism 8.0 software and values were presented as mean t SEM."}},
  "data": [
    {"molecule": "anti-BCMA-AB1-Compound 50 (antibody, human IgG1, V domains shown, drug-linker Compound 50 on antibody cysteine thiols (C-lock linkage; positions not stated)) VH: EVQLVESGGGLVKPGGSLRLSCAASGFTSSTAWMSWVRQAPGKGLEWVGRIKSKSDGGTTDYAAPVKGRFTISRDDSKNTLFLQMNSLKTEDTAVYYCAKGGGTYGYWGQGTTVTVSS VL: QSVLTQPASVSGSPGQSVTISCTGTSSAHGGHYYVSWYQQHPGKAPKLMIYDVSNRPSGVSNRFSGSKSGNTASLTISGLQAEDEADYYCGSYTSSGSYVFGTGTKLTVL", "values": [
      {"measurement": "EC50 of cell viability (CellTiter-Glo 2.0), NCI-H929 (BCMA-positive) cells, 120-hour assay", "setting": "[1]", "value": 0.762, "unit": "nM"}
    ]},
    {"molecule": "anti-BCMA-AB1-Compound 3 (antibody, human IgG1, V domains shown, drug-linker Compound 3 on antibody cysteine thiols (C-lock conjugation; positions not stated)) VH: EVQLVESGGGLVKPGGSLRLSCAASGFTSSTAWMSWVRQAPGKGLEWVGRIKSKSDGGTTDYAAPVKGRFTISRDDSKNTLFLQMNSLKTEDTAVYYCAKGGGTYGYWGQGTTVTVSS VL: QSVLTQPASVSGSPGQSVTISCTGTSSAHGGHYYVSWYQQHPGKAPKLMIYDVSNRPSGVSNRFSGSKSGNTASLTISGLQAEDEADYYCGSYTSSGSYVFGTGTKLTVL", "values": [
      {"measurement": "EC50 of cell viability (Cell Titer-Glo), MM.1R (BCMA+) cells, 5-day assay", "setting": "[2]", "value": 2.28, "unit": "nM"},
      {"measurement": "EC50 of cell viability (Cell Titer-Glo), NCI-H929 (BCMA+) cells, 5-day assay", "setting": "[2]", "value": 0.699, "unit": "nM"},
      {"measurement": "EC50 of cell viability (Cell Titer-Glo), MM.1R (BCMA+) cells, 4-day assay", "setting": "[3]", "value": 10, "unit": "nM"},
      {"measurement": "EC50 of cell viability (Cell Titer-Glo), NCI-H929 (BCMA+) cells, 4-day assay", "setting": "[3]", "value": 2.21, "unit": "nM"},
      {"measurement": "EC50 of cell viability (CellTiter-Glo 2.0), NCI-H929 (BCMA-positive) cells, 120-hour assay", "setting": "[1]", "value": 0.368, "unit": "nM"}
    ]},
    {"molecule": "BCMA-AB1-1: Compound 1 conjugated with anti-BCMA antibody clone BCA7-2C5 (AB1); DAR 3.8 (conjugate) VH: EVQLVESGGGLVKPGGSLRLSCAASGFTSSTAWMSWVRQAPGKGLEWVGRIKSKSDGGTTDYAAPVKGRFTISRDDSKNTLFLQMNSLKTEDTAVYYCAKGGGTYGYWGQGTTVTVSS VL: QSVLTQPASVSGSPGQSVTISCTGTSSAHGGHYYVSWYQQHPGKAPKLMIYDVSNRPSGVSNRFSGSKSGNTASLTISGLQAEDEADYYCGSYTSSGSYVFGTGTKLTVL", "values": [
      {"measurement": "EC50", "setting": "K562 (BCMA −) cells", "value": "> 100", "unit": "nM"}
    ]},
    {"molecule": "anti-BCMA-AB1-Compound 51 (antibody, human IgG1, V domains shown, drug-linker Compound 51 on antibody cysteine thiols (C-lock linkage; positions not stated)) VH: EVQLVESGGGLVKPGGSLRLSCAASGFTSSTAWMSWVRQAPGKGLEWVGRIKSKSDGGTTDYAAPVKGRFTISRDDSKNTLFLQMNSLKTEDTAVYYCAKGGGTYGYWGQGTTVTVSS VL: QSVLTQPASVSGSPGQSVTISCTGTSSAHGGHYYVSWYQQHPGKAPKLMIYDVSNRPSGVSNRFSGSKSGNTASLTISGLQAEDEADYYCGSYTSSGSYVFGTGTKLTVL", "values": [
      {"measurement": "EC50 of cell viability (CellTiter-Glo 2.0), NCI-H929 (BCMA-positive) cells, 120-hour assay", "setting": "[1]", "value": 1.93, "unit": "nM"}
    ]},
    {"molecule": "BCMA-AB1-8 (conjugate) VH: EVQLVESGGGLVKPGGSLRLSCAASGFTSSTAWMSWVRQAPGKGLEWVGRIKSKSDGGTTDYAAPVKGRFTISRDDSKNTLFLQMNSLKTEDTAVYYCAKGGGTYGYWGQGTTVTVSS VL: QSVLTQPASVSGSPGQSVTISCTGTSSAHGGHYYVSWYQQHPGKAPKLMIYDVSNRPSGVSNRFSGSKSGNTASLTISGLQAEDEADYYCGSYTSSGSYVFGTGTKLTVL", "values": [
      {"measurement": "cell killing of NCI-H929", "setting": "NCI-H929 (BCMA+) cells", "value": "comparable activity to the Gly2 peptide linker ADC, anti-BCMA-AB1-7"}
    ]},
    {"molecule": "BCMA-AB2-3: Compound 3 conjugated with anti-BCMA antibody clone BCA7-2E1 (AB2) (conjugate) VH: EVQLVESGGGLVKPGGSLRLSCAASGFTSSTAWMSWVRQAPGKGLEWVGRIKSKSDGGTTDYAAPVKGRFTISRDDSKNTLFLQMNSLKTEDTAVYYCAKGGGTYGYWGQGTTVTVSS VL: QSALTQPASVSGSPGQSVTISCTGTSSDGGGHTYVSWYQQHPGKAPKLMIYDVSNRPSWVSNRFSGSKSGNTASLTISGLQAEDEADYYCGSYTSSGSYVFGTGTKLTVL", "values": [
      {"measurement": "tumor regression / elimination", "setting": "NCI-H929 tumor xenograft; both regimens", "value": "induced dramatic and prolonged tumor regressions and eliminated all tumors in about two weeks after initial treatments"},
      {"measurement": "tumor growth", "setting": "NCI-H929 tumor xenograft; i.p., 2 and 4 mg/kg biw×4", "value": "significantly inhibited tumor growth"}
    ]},
    {"molecule": "BCMA-AB1-2: Compound 2 conjugated with anti-BCMA antibody clone BCA7-2C5 (AB1); DAR 3.4 (conjugate) VH: EVQLVESGGGLVKPGGSLRLSCAASGFTSSTAWMSWVRQAPGKGLEWVGRIKSKSDGGTTDYAAPVKGRFTISRDDSKNTLFLQMNSLKTEDTAVYYCAKGGGTYGYWGQGTTVTVSS VL: QSVLTQPASVSGSPGQSVTISCTGTSSAHGGHYYVSWYQQHPGKAPKLMIYDVSNRPSGVSNRFSGSKSGNTASLTISGLQAEDEADYYCGSYTSSGSYVFGTGTKLTVL", "values": [
      {"measurement": "EC50", "setting": "K562 (BCMA −) cells", "value": "> 100", "unit": "nM"}
    ]},
    {"molecule": "anti-BCMA-AB1-Compound 53 (antibody, human IgG1, V domains shown, drug-linker Compound 53 conjugated to the antibody (PFP linkage; residues not stated)) VH: EVQLVESGGGLVKPGGSLRLSCAASGFTSSTAWMSWVRQAPGKGLEWVGRIKSKSDGGTTDYAAPVKGRFTISRDDSKNTLFLQMNSLKTEDTAVYYCAKGGGTYGYWGQGTTVTVSS VL: QSVLTQPASVSGSPGQSVTISCTGTSSAHGGHYYVSWYQQHPGKAPKLMIYDVSNRPSGVSNRFSGSKSGNTASLTISGLQAEDEADYYCGSYTSSGSYVFGTGTKLTVL", "values": [
      {"measurement": "EC50 of cell viability (CellTiter-Glo 2.0), NCI-H929 (BCMA-positive) cells, 120-hour assay", "setting": "[1]", "value": 0.398, "unit": "nM"}
    ]},
    {"molecule": "anti-BCMA-AB1-Compound 52 (antibody, human IgG1, V domains shown, drug-linker Compound 52 on antibody cysteine thiols (C-lock linkage; positions not stated)) VH: EVQLVESGGGLVKPGGSLRLSCAASGFTSSTAWMSWVRQAPGKGLEWVGRIKSKSDGGTTDYAAPVKGRFTISRDDSKNTLFLQMNSLKTEDTAVYYCAKGGGTYGYWGQGTTVTVSS VL: QSVLTQPASVSGSPGQSVTISCTGTSSAHGGHYYVSWYQQHPGKAPKLMIYDVSNRPSGVSNRFSGSKSGNTASLTISGLQAEDEADYYCGSYTSSGSYVFGTGTKLTVL", "values": [
      {"measurement": "EC50 of cell viability (CellTiter-Glo 2.0), NCI-H929 (BCMA-positive) cells, 120-hour assay", "setting": "[1]", "value": 0.169, "unit": "nM"}
    ]}
  ]
}
